± gives the uncertainty stated by the source.
B1: F-BAR and double SH3 domains protein 1, residues 467 to 528; numbered along this chain, Q86WN1 (parent)
chain: RALPCPAHVVFRYQAGREDELTITEGEWLEVIEEGDADEWVKARNQHGEVGFVPERYLNFPD

Variants of: B1
Experiment: abundance fitness (aPCA) (normalised: wild type 0, dead -1); higher = more abundant; growth selection in yeast, the domain comes from the species named
Conditions: Homo sapiens

| Variant | abundance fitness |
| --- | --- |
| H8D | -0.282 ± 0.11 |
| H8L | -0.202 ± 0.044 |
| H8F | -0.591 ± 0.12 |
| H8P | -0.905 ± 0.14 |
| I23N | -1.18 ± 0.36 |
| I23S | -0.719 ± 0.064 |
| I23C | -0.228 ± 0.076 |
| E30H | -0.218 ± 0.14 |
| E30C | -0.307 ± 0.15 |
| E30G | -0.801 ± 0.09 |
| E30I | -0.353 ± 0.14 |
| E30W | -0.185 ± 0.07 |
| E30V | -0.202 ± 0.045 |
| R56C | -0.012 ± 0.12 |
| R56P | -0.129 ± 0.062 |
| R56V | -0.096 ± 0.057 |
| R56F | -0.164 ± 0.072 |
| P61R | -0.09 ± 0.039 |
| P61L | 0.004 ± 0.043 |
| P61M | -0.088 ± 0.076 |
| E18S | -0.127 ± 0.048 |
| E18G | -0.072 ± 0.047 |
| E18Y | -0.233 ± 0.079 |
| E18I | -0.389 ± 0.16 |

| Variant | abundance fitness |
| --- | --- |
| E18R | -0.134 ± 0.039 |
| E18M | -0.245 ± 0.087 |
| E18P | -0.062 ± 0.067 |
| E18D | 0.082 ± 0.1 |
| L58K | -1.01 ± 0.29 |
| L58C | -0.499 ± 0.078 |
| L58M | -0.574 ± 0.11 |
| L58V | -0.267 ± 0.062 |
| L58T | -0.602 ± 0.084 |
| W28P | -0.113 ± 0.089 |
| W28E | -0.081 ± 0.14 |
| W28Q | 0.026 ± 0.063 |
| W28M | -0.024 ± 0.057 |
| W28G | -0.217 ± 0.058 |
| Q46M | -0.088 ± 0.072 |
| Q46F | -0.207 ± 0.1 |
| Q46D | -0.198 ± 0.076 |
| Q46I | -0.142 ± 0.1 |
| Q46N | -0.027 ± 0.17 |
| Q46K | 0.074 ± 0.062 |
| Q46H | -0.163 ± 0.15 |
| L29V | 0.102 ± 0.054 |
| L29D | -0.642 ± 0.25 |
| L29S | -0.491 ± 0.096 |

| Variant | abundance fitness |
| --- | --- |
| L29M | -0.508 ± 0.13 |
| L29N | -0.577 ± 0.17 |
| R12N | 0.033 ± 0.078 |
| R12Q | -0.078 ± 0.075 |
| R12A | 0.056 ± 0.055 |
| R12W | -0.455 ± 0.096 |
| A2L | -0.007 ± 0.045 |
| A2E | 0.196 ± 0.083 |
| D19I | -0.095 ± 0.073 |
| D19T | 0.051 ± 0.059 |
| D19F | -0.006 ± 0.058 |
| P4L | -0.567 ± 0.076 |
| P4F | -0.451 ± 0.087 |
| A7R | -0.617 ± 0.067 |
| A7T | -0.917 ± 0.18 |
| A7Y | -0.528 ± 0.21 |
| A7N | -0.521 ± 0.19 |
| A7L | -0.866 ± 0.086 |
| A7V | -0.454 ± 0.057 |
| G35S | -0.07 ± 0.052 |
| G35W | -0.332 ± 0.1 |
| G35E | -0.407 ± 0.089 |
| G35D | -0.211 ± 0.094 |
| G35K | -0.126 ± 0.07 |

| Variant | abundance fitness |
| --- | --- |
| G35A | -0.045 ± 0.052 |
| G35H | -0.409 ± 0.2 |
| G35R | -0.072 ± 0.056 |
| D62N | -0.201 ± 0.074 |
| D62C | 0.111 ± 0.14 |
| D62Q | -0.276 ± 0.17 |
| D62W | -0.356 ± 0.084 |
| D62H | 0.011 ± 0.13 |
| D62P | -0.235 ± 0.082 |
| T24G | -0.231 ± 0.069 |
| T24L | -0.081 ± 0.046 |
| T24H | 0.036 ± 0.12 |
| T24I | -0.063 ± 0.12 |
| T24S | -0.083 ± 0.051 |
| T24K | 0.042 ± 0.077 |
| T24M | -0.02 ± 0.063 |
| T24E | 0.105 ± 0.082 |
| V50P | -0.833 ± 0.14 |
| V50N | -0.737 ± 0.25 |
| V50H | -0.554 ± 0.12 |
| G51N | -1.17 ± 0.44 |
| G51T | -0.698 ± 0.091 |
| G51W | -0.954 ± 0.13 |
| D36F | 0.005 ± 0.069 |

| Variant | abundance fitness |
| --- | --- |
| D36L | -0.01 ± 0.047 |
| D36R | -0.016 ± 0.05 |
| D36P | 0.13 ± 0.055 |
| D36H | 0.033 ± 0.15 |
| L3I | -0.058 ± 0.093 |
| L3N | -0.127 ± 0.082 |
| L3W | -0.53 ± 0.065 |
| L3M | -0.121 ± 0.085 |
| L3S | -0.193 ± 0.057 |
| L3A | -0.693 ± 0.24 |
| L3P | -0.242 ± 0.093 |
| L21F | -0.588 ± 0.16 |
| L21H | -0.701 ± 0.43 |
| L21E | -0.751 ± 0.18 |
| L21G | -0.87 ± 0.13 |
| L21V | -0.456 ± 0.098 |
| L21I | -0.49 ± 0.12 |
| Y57K | -0.231 ± 0.081 |
| Y57F | -0.006 ± 0.06 |
| Y57T | 0.07 ± 0.052 |
| Y57L | -0.023 ± 0.037 |
| Y57Q | -0.292 ± 0.089 |
| Y57R | -0.373 ± 0.071 |
| Y57P | -0.613 ± 0.1 |

| Variant | abundance fitness |
| --- | --- |
| F52H | -0.199 ± 0.093 |
| F52A | -0.249 ± 0.055 |
| F52R | -0.063 ± 0.044 |
| F52I | -0.152 ± 0.12 |
| F52E | -0.322 ± 0.058 |
| R44S | -0.253 ± 0.063 |
| R44W | -0.947 ± 0.19 |
| R44M | -0.175 ± 0.066 |
| R44L | -0.342 ± 0.048 |
| F11G | 0.095 ± 0.041 |
| F11P | -0.774 ± 0.11 |
| F11I | 0.12 ± 0.074 |
| F11D | 0.143 ± 0.092 |
| F11L | -0.061 ± 0.037 |
| E39F | 0.042 ± 0.079 |
| E39D | -0.228 ± 0.094 |
| E39C | -0.103 ± 0.11 |
| E39T | 0.02 ± 0.055 |
| V53F | -0.823 ± 0.17 |
| V53N | -0.829 ± 0.24 |
| V53G | -0.624 ± 0.078 |
| C5L | -0.538 ± 0.067 |
| C5W | -0.399 ± 0.091 |
| V31L | -0.454 ± 0.057 |

| Variant | abundance fitness |
| --- | --- |
| V31H | -0.709 ± 0.15 |
| V31K | -0.797 ± 0.14 |
| P6S | -0.344 ± 0.071 |
| P6M | -0.357 ± 0.12 |
| P6L | -0.321 ± 0.048 |
| P6W | -0.29 ± 0.062 |
| P6H | -0.038 ± 0.14 |
| P6Q | -0.222 ± 0.072 |
| P6C | -0.12 ± 0.071 |
| E25W | -0.373 ± 0.12 |
| E25M | -0.297 ± 0.2 |
| E25I | -0.348 ± 0.22 |
| E25S | 0.104 ± 0.11 |
| E25F | -0.37 ± 0.16 |
| E25R | -0.328 ± 0.079 |
| E25D | -0.014 ± 0.17 |
| Q14D | 0.014 ± 0.086 |
| Q14E | -0.024 ± 0.064 |
| Q14F | -0.018 ± 0.056 |
| Q14I | -0.261 ± 0.082 |
| Q14V | -0.14 ± 0.049 |
| Q14H | -0.071 ± 0.072 |
| Q14K | -0.078 ± 0.079 |

Reference: the Human Domainome abundance scans (Beltran et al. 2025)
